In paper PMC9636275 (Nature Communications, 2022):
Residue numbers refer to the chain shown, from its start. Numbers in names are those of the source. Read-outs that look alike come from different tables or passages of the source.

Assays:
[1] = biological target: T1, CobB (Escherichia coli, UniProt P75960); details: 10 mM NAM, 37 °C, 2 h; result in words
T1 sequence (P75960 1-279): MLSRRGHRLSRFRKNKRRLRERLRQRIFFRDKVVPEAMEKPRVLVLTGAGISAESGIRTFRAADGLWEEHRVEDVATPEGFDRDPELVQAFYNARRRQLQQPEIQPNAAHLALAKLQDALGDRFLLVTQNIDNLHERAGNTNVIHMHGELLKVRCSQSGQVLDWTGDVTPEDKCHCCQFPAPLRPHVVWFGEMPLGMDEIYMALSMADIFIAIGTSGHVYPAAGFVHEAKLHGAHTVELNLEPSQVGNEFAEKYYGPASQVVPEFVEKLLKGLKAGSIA

[2] = biological target: T2, YiaC (Escherichia coli, UniProt P37664); test: Isothermal titration calorimetry (MicroCal PEAQ-ITC) with acyl-CoA (750 uM in syringe) titrated into YiaC (75 uM in cell) at 25.1 °C according to the data sheet; the methods text gives 500 uM, 50 uM and 37 °C.; type: binding; details: n = 3
T2 construct: recombinant, pET28a vector, expressed in E. coli BL21 (λDE3), purified on HisPur Ni-NTA resin
T2 sequence (P37664 whole entry): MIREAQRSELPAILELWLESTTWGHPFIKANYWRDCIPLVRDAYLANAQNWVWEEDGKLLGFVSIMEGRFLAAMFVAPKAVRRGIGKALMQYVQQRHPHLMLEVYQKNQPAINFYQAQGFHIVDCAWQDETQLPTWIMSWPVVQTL
Protocol: (§1) This method was described previously. […] The volume of the first injection was 0.5 μl of 500 μM actyl-CoA (or actylated peptides), and the following 18 injections were 2.0 μl. The binding isotherm was fit with the Origin 8.0 software (OriginLab). Each group had three biological repetitions.

[3] = test system: whole-cell lysates; test: Whole-cell lysate reaction, lactate to La-CoA; design: species or system E. coli MG1655; details: result in words
Protocol: This method was described previously. In detail, E. coli MG1655 was cultured in LB medium at 37 °C in shaken flasks overnight and harvested the cells by centrifugation, then added lysate buffer [[…], […] and 5 mM MgCl2, PH 7.0] and broke cells by ultrasound on ice, the supernatant was extracted by high-speed centrifugation as the whole protein lysate. Then measured protein concentration by BCA and adjusted the protein concentration to 2 mg/ml. […] Each reaction was performed three biological repetitions.
(§2) Samples dissolved in water were analyzed by an Orbitrap Exploris 480 (Thermo Scientific) mass spectrometer in positive ESI mode using the settings described previously[65],[66]. […] An Orbitrap Exploris 480 (Thermo Fisher Scientific) was employed for MS analysis. Spray voltage was set to 3.5 kV, funnel RF level at 40, and ion transfer tube temperature at 320 °C. Data were collected by Xcalibur (v.4.0.27.19). The orbitrap mass analyzer was used as the MS1 detector with 120,000 resolution. The normalized AGC target and maximum injection time were set at 70% /standard for MS1. The MS2 detector was used 15,000 resolution. Targeted mass setting is lactyl-CoA: 840.1436, acetyl-CoA: 810.1330 and propionate CoA: 824.1487. […] The relative intensity of acyl-CoA was analyzed by Xcalibur (v.4.0.27.19).

[4] = biological target: YiaC; test: ITC affinity of recombinant YiaC with acyl-CoA; type: binding, E. coli; details: for Kd: cell 50 μM YiaC titrated with 500 μM acyl-CoA, 37 °C (method), three biological repetitions; for binding (Bin): result in words
Protocol: as §1

[5] = test system: PykF; details: for Relative activity of PykF: intracellular; for intracellular PykF activity: result in words
[6] = test system: E. coli MG1655; test: Growth curve; type: cell-based; details: 37 °C, result in words
Protocol: As previous described, the strains were cultured in LB medium overnight, then diluted 1:1000 in LB or M9 medium (with 1% glucose or 1% pyruvate) and incubated at 37 °C with 96-well plates, and each strain was added to three wells. The absorbance at 600 nm at initiation was set as a blank and measured every hour using a spectrophotometer. All the growth dynamic curves were drawn using Origin 8.0.

[7] = test system: PykF; details: in vitro; result in words
[8] = test system: PncB; test: In vitro assay for PncB activity; type: biochemical, E. coli; details: for enzymatic activity vs wild type: in vitro, result in words
Protocol: The activity of purified PncB, PncB^K381Q, and PncB^K381R were measured as described. In detail, the purified proteins were added in the reaction buffer [50 mM Tris-HCl, 10 mM MgCl2, 2.5 mM dithiothreitol, 1 mM ATP, […] of bovine serum albumin, 1 mM nicotinic acid and 1 mM 5-phosphoribosyl-1-pyrophosphate (pH 7.5)] at 37 °C for 2 h. The reactions were measured by HPLC-MS/MS to detect the production of […]. Separation was performed on a Vanquish UHPLC system (Thermo Fisher Scientific) with an ACQUITY UPLC BEH C18 column (100 × 2.1 mm, 1.7 μm). Mobile phase A was 0.1% formic acid in water. Mobile phase B was 0.1% formic acid in methanol. […] Injection volume was 2 μl. Nicotinic acid detection was performed on an Orbitrap Exploris 480 spectrometer (Thermo Fisher Scientific, Bremen, Germany) operated with ESI probe. Data were acquired under the following parameters: sheath gas ((N2), 35 Arb; aux gas (N2), 10 Arb; spray voltage, 3500 V (positive mode); and in transfer tube temperature, 320 °C. An SIM was applied for data acquisition.

[9] = test system: Acs; test: In vitro assay for Acs activity; type: biochemical, E. coli; details: result in words
Protocol: This method was performed as described previously. In detail, the purified Acs or PrpE with a final concentration of 0.3 μM were added in the reaction buffer [50 mM HEPES, 10 mM MgCl2, 2.5 mM ATP, 0.5 mM HSCoA, 3 mM phosphoenolpyruvate, 0.1 mM NADH, 1 U pyruvate kinase, 1.5 U lactate dehydrogenase, 5 U myokinase, 10 mM DTT, and 0.2 mM organic acid substrate (acetate, lactate and propionate), PH 7.5] at 25 °C for 30 min. […] Each reaction was performed three biological repetitions.
as §2

[10] = Fig. 6e, LB medium 37 °C, replicate 1
[11] = Fig. 6e, LB medium 37 °C, replicate 2
[12] = Fig. 6e, LB medium 37 °C, replicate 3
[13] = Fig. 6g, M9 with 1% glucose, replicate 2
[14] = Fig. 6g, M9 with 1% glucose, replicate 3
[15] = replicate 1, 37 °C, 2 h, HPLC-MS/MS

Molecule: NC(=O)c1cccnc1 [NAM, nicotinamide, reference compound]
- inhibition of CobB delactylation [1]: the delactylation reaction could be inhibited by nicotinamide (NAM)
- inhibition, deacetylation compared with delactylation [1]: more effective for deacetylation than delactylation

Molecule: CC(O)C(=O)SCCNC(=O)CCNC(=O)[C@H](O)C(C)(C)COP(=O)(O)OP(=O)(O)OC[C@H]1O[C@@H](n2cnc3c(N)ncnc32)[C@H](O)[C@@H]1OP(=O)(O)O (stereo partly drawn) [lactyl-CoA, lactyl-coenzyme A]
- Kd [2]: 6.83 µM
- conversion to lactyl-CoA / lactyl-CoA level [3]: low level
- Kd [4]: 6.83 µM
- binding (Bin) [4]: strong binding
- binding (Bin) ([4]; listed as laCoA): Binding

Molecule: CC(O)C(=O)O (stereo not drawn) [lactate, reference compound]
- conversion to lactyl-CoA / lactyl-CoA level [3]: could be effectively converted to lactyl-CoA

Molecule: CC(=O)SCCNC(=O)CCNC(=O)[C@H](O)C(C)(C)COP(=O)(O)OP(=O)(O)OC[C@H]1O[C@@H](n2cnc3c(N)ncnc32)[C@H](O)[C@@H]1OP(=O)(O)O [acetyl-CoA, Acetyl coenzyme A, reference compound]
- Kd [4]: 5.57 µM
- binding (Bin) [4]: Binding

Molecule: PykF^K382Q
- Relative activity of PykF [5, 10]: 0.52
- Relative activity of PykF [5, 11]: 0.47
- Relative activity of PykF [5, 12]: 0.58
- Relative activity of PykF [5, 13]: 0.4941
- Relative activity of PykF [5, 14]: 0.4204
- intracellular PykF activity ([5]; LB medium): lowest activity
- intracellular PykF activity ([5]; M9 with 1% glucose): lowest PykF activity
- growth ([6]; LB medium): grew the slowest
- growth ([6]; M9 with 1% glucose): grew slowest
- enzymatic activity vs wild type [7]: significantly decreased

Molecule: Succinyl coenzyme A [succinyl-CoA, reference compound]
- binding (Bin) [4]: no binding

Molecule: PykF^K382R: PykF mutant, unmodified K mimic; pPykF^K382R = overexpressing strain
- Relative activity of PykF [5, 10]: 1.38
- Relative activity of PykF [5, 11]: 1.06
- Relative activity of PykF [5, 12]: 1.54
- Relative activity of PykF ([5]; Fig. 6g, M9 with 1% glucose, replicate 1): 1.27
- Relative activity of PykF [5, 13]: 1.36
- Relative activity of PykF [5, 14]: 1.3593
- intracellular PykF activity ([5]; LB medium): highest activity
- intracellular PykF activity ([5]; M9 with 1% glucose): highest PykF activity
- growth ([6]; LB medium): fastest growth
- growth ([6]; M9 with 1% glucose): grew fastest
- enzymatic activity vs wild type [7]: increased

Molecule: CC(=O)SCCNC(=O)CCNC(=O)[C@H](O)C(C)(C)COP(=O)(O)OP(=O)(O)OC[C@H]1O[C@@H](n2cnc3c(N)ncnc32)[C@H](O)[C@@H]1OP(=O)(O)O [acetyl-CoA, acetyl coenzyme A]
- Kd [2]: 5.57 µM

B1: PncB^K381Q (protein, UniProt P18133 2-400, looked up, variant K381Q)
Nicotinate …: TQFASPVLHSLLDTDAYKLHMQQAVFHHYYDVHVAAEFRCRGDDLLGIYADAIREQVQAMQHLRLQDDEYQWLSALPFFKADYLNWLREFRFNPEQVTVSNDNGKLDIRLSGPWREVILWEVPLLAVISEMVHRYRSPQADVAQALDTLESKLVDFSALTAGLDMSRFHLMDFGTRRRFSREVQETIVKRLQQESWFVGTSNYDLARRLSLTPMGTQAHEWFQAHQQISPDLANSQRAALAAWLEEYPDQLGIALTDCITMDAFLRDFGVEFASRYQGLRHDSGDPVEWGEKAIAHYEKLGIDPQSKTLVFSDNLDLRKAVELYRHFSSRVQLSFGIGTRLTCDIPQVKPLNIVIKLVECNGKPVAKLSDSPGKTICHDQAFVRALRKAFDLPHIKKAS
- enzymatic activity vs wild type [8]: significantly decreased
- Residual percentage of reaction ([8]; replicate 1, relative to C): 0.3998
- Determination of nicotinic acid [8, 15]: 117663852
- Determination of nicotinic acid ([8]; replicate 2): 149776081
- Residual percentage of reaction ([8]; replicate 2, relative to C): 0.4956
- Determination of nicotinic acid ([8]; replicate 3): 106239984
- Residual percentage of reaction ([8]; replicate 3, relative to C): 0.3796

B2: PncB: nicotinate phosphoribosyltransferase, wild type (protein, UniProt P18133 2-400, looked up)
Nicotinate …: B1 Nicotinate … with Q380K
- Residual percentage of reaction ([8]; replicate 1, relative to C): 0.08118
- Determination of nicotinic acid [8, 15]: 23891965
- Determination of nicotinic acid ([8]; replicate 2): 25485329
- Residual percentage of reaction ([8]; replicate 2, relative to C): 0.08433
- Determination of nicotinic acid ([8]; replicate 3): 18539215
- Residual percentage of reaction ([8]; replicate 3, relative to C): 0.06624

B3: PncB^K381R (protein, UniProt P18133 2-400, looked up, variant K381R)
Nicotinate …: B1 Nicotinate … with Q380R
- enzymatic activity vs wild type [8]: increased
- Residual percentage of reaction ([8]; replicate 1, relative to C): 0.01962
- Determination of nicotinic acid [8, 15]: 5775041
- Determination of nicotinic acid ([8]; replicate 2): 6028387
- Residual percentage of reaction ([8]; replicate 2, relative to C): 0.01995
- Determination of nicotinic acid ([8]; replicate 3): 5793798
- Residual percentage of reaction ([8]; replicate 3, relative to C): 0.0207

B4: Acs: acetyl-CoA synthetase (protein, UniProt P27550 1-652, looked up)
Acetyl-coenzyme A synthetase: MSQIHKHTIPANIADRCLINPQQYEAMYQQSINVPDTFWGEQGKILDWIKPYQKVKNTSFAPGNVSIKWYEDGTLNLAANCLDRHLQENGDRTAIIWEGDDASQSKHISYKELHRDVCRFANTLLELGIKKGDVVAIYMPMVPEAAVAMLACARIGAVHSVIFGGFSPEAVAGRIIDSNSRLVITSDEGVRAGRSIPLKKNVDDALKNPNVTSVEHVVVLKRTGGKIDWQEGRDLWWHDLVEQASDQHQAEEMNAEDPLFILYTSGSTGKPKGVLHTTGGYLVYAALTFKYVFDYHPGDIYWCTADVGWVTGHSYLLYGPLACGATTLMFEGVPNWPTPARMAQVVDKHQVNILYTAPTAIRALMAEGDKAIEGTDRSSLRILGSVGEPINPEAWEWYWKKIGNEKCPVVDTWWQTETGGFMITPLPGATELKAGSATRPFFGVQPALVDNEGNPLEGATEGSLVITDSWPGQARTLFGDHERFEQTYFSTFKNMYFSGDGARRDEDGYYWITGRVDDVLNVSGHRLGTAEIESALVAHPKIAEAAVVGIPHNIKGQAIYAYVTLNHGEEPSPELYAEVRNWVRKEIGPLATPDVLHWTDSLPKTRSGKIMRRILRKIAAGDTSNLGDTSTLADPGVVEKLLEEKQAIAMPS
- formation of lactyl-CoA from lactate [9]: neither Acs nor PrpE could catalyze the formation of lactyl-CoA from lactate
